Experimental data published in patent US20230203180A1.

Target: transferrin receptor (on Hepa 1-6 cells; in tissues of C57BL/6 wild-type mice) (mouse) (UniProt Q62351)
Experiment: cell-based or functional assay

Sequence of UniProt Q62351 (Q62351 whole entry): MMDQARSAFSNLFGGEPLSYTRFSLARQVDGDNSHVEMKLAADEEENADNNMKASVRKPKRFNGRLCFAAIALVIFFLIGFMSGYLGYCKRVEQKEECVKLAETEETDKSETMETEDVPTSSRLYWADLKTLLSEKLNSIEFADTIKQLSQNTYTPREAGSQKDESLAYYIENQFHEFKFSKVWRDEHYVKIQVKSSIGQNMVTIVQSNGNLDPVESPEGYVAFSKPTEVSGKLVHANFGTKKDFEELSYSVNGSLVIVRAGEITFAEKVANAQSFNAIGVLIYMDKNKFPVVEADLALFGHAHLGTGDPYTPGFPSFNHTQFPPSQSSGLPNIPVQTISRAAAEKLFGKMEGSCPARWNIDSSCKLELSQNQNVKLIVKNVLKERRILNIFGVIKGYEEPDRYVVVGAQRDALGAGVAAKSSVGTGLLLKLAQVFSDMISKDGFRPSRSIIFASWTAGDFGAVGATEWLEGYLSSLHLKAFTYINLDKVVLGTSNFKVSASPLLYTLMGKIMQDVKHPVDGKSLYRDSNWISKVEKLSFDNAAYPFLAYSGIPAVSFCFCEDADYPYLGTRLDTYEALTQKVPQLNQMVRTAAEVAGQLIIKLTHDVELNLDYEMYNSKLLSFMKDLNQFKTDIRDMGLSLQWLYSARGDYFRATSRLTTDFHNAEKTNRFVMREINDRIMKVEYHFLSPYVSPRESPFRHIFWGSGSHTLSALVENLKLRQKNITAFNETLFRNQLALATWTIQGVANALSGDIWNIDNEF

antiTfR-siHPRT complex: RI7 217 anti-TfR1 Fab (DTX-A-002) covalently linked via a non-cleavable GMBS linker to HPRT siRNA (siHPRT)
reduction in HPRT expression in Hepa 1-6 cells (100 nM complex, 72 hours): 50%
reduction in HPRT expression in gastrocnemius of C57BL/6 mice (single i.v. dose, 2 mg/kg RNA, day 3): 31%
reduction in HPRT expression in heart of C57BL/6 mice (single i.v. dose, 2 mg/kg RNA, day 3): 30%
